We go through five molecules from patent US7057012B1, “PTH functional domain conjugate peptides, derivatives thereof and novel tethered ligand-receptor molecules” (The General Hospital Corporation, priority 1998, dated 2006).

Experiment [1] relates to COS-7 cells. Nature of the experiment: basal cAMP signaling of tethered ligand/receptor constructs in transiently transfected COS-7 cells. Format: cell-based. The note with it: for level of basal cAMP signaling: no agonist. The procedure: (§1) Cell Culture: COS-7 cells were cultured at 37° C. in T-75 flasks ([…] in Dulbecco's modified Eagle's medium (DMEM) supplemented with fetal bovine serum (10%), penicillin G (20 units/ml), streptomycin sulfate (20 μg/ml) and amphotericin B (0.05 μg/ml) in a humidified atmosphere containing 5% CO2. Cells were sub-cultured in 24-well plates and, when confluent, were treated with fresh media and shifted to 33° C. for 12 to 24 h prior to the assay (Bergwitz, C., et al., J. Biol. Chem. 272:28861–28868 (1997); Abell, A., et al., J. Biol. Chem. 271:4518–4527 (1996)).
PTH Receptor mutagenesis and COS-7 cell expression: The pcDNA-1-based plasmid encoding the intact HPTH-1 receptor (HK-WT in reference (Schipani, E., et al., Endocrinol. 132:2157–2165 (1993)) and herein called hP1R-WT) was used for studies in COS-7 cells. The truncated human PTH-1 receptor (hP1R-de1Nt) (FIG. 18) was constructed from the HK-WT plasmid by oligonucleotide-directed mutagenesis (Kunkel, T. A., Proc. Natl. Acad. Sci. USA 82:488–492 (1985)). This mutant receptor is deleted for residues 24 to 181 and, assuming that signal peptidase cleavage occurs between Ala^22 and Tyr^23 (Nielsen, H., et al., Protein Engineering 10:1–6 (1997)), is predicted to have Tyr^23 as the N-terminal residue joined directly to Glu^182 located at or near the boundary of the first transmembrane domain. A similarly truncated rat PTH receptor was described by us previously (Luck, M., et al., Molec. Endocrinol. 13:670–680 (1999)). The tethered human PTH-1 receptor [hP1R-Tether(1–9)] (hTether-1 in FIG. 17) is based on the hP1R-de1NT construct, and has PTH(1–9) and a four glycine spacer (AVSEIQLMHGGGG) (SEQ ID NO: 72) inserted between residues 23 and 182. Assuming that signal peptidase cleavage occurs between Ala^22 and Tyr^23, hP1R-Tether(1–9) is predicted to have Tyr^23 as the N-terminal residue joined directly to Ala of the ligand. Analogs of hP1R-Tether(1–9) were made in a similar fashion. Transient transfections of COS-7 cells were performed using DEAE-dextran and 200 ng of cesium chloride-purified plasmid DNA per well of a 24-well plate, as described previously (Bergwitz, C., et al., J. Biol. Chem. 272:28861–28868 (1997)).
cAMP Stimulation: Stimulation of cells with peptide analogs was performed in 24-well plates. Cells were rinsed with 0.5 mL of binding buffer (50 mM Tris-HCl, 100 mM NaCl, 5 mM KCl, 2 mM CaCl2, 5% heat-inactivated horse serum, 0.5% fetal bovine serum, adjusted to pH 7.7 with HCl) and treated with 200 μL of cAMP assay buffer (Dulbecco's modified Eagle's medium containing 2 mM 3-isobutyl-1-methylxanthine, 1 mg/mL bovine serum albumin, 35 mM Hepes-NaOH, pH 7.4) and 100 μL of binding buffer containing varying amounts of peptide analog (final volume=300 μL). The medium was removed after incubation for 1 h at room temperature, and the cells were frozen (−80° C.), lysed with 0.5 mL 50 mM HCl, and refrozen (−80° C.). The cAMP content of the diluted lysate was determined by radioimmunoassay.

For experiment [2], the system named is COS-7 cells. The experiment is described as follows: agonist-induced cAMP signaling of receptor constructs in transiently transfected COS-7 cells. It is filed as cell-based. The procedure:
as §1
PTH Receptor mutagenesis and COS-7 cell expression: The pcDNA-1-based plasmid encoding the intact HPTH-1 receptor (HK-WT in reference (Schipani, E., et al., Endocrinol. 132:2157–2165 (1993)) and herein called hP1R-WT) was used for studies in COS-7 cells. The truncated human PTH-1 receptor (hP1R-de1Nt) (FIG. 18) was constructed from the HK-WT plasmid by oligonucleotide-directed mutagenesis (Kunkel, T. A., Proc. Natl. Acad. Sci. USA 82:488–492 (1985)). […]
cAMP Stimulation: Stimulation of cells with peptide analogs was performed in 24-well plates. […] The cAMP content of the diluted lysate was determined by radioimmunoassay.

Where two headings read alike, the source gives them in different places.

B1: hP1R-Tether(1–10): hP1R-Tether construct with the ligand chain extended to position 10 (protein)
chain: EIQLMHNGGGGEVFDRLGMIYTVGYSVSLASLTVAVLILAYFRRLHCTRNYIHMHLFLSFMLRAVSIFVKDAVLYSGATLDEAERLTEEELRAIAQAPPPPATAAAGYAGCRVAVTFFLYFLATNYYWILVEGLYLHSLIFMAFFSEKKYLWGFTVFGWGLPAVFVAVWVSVRATLANTGCWDLSSGNKKWIIQVPILASIVLNFILFINIVRVLATKLRETNAGRCDTRQQYRKLLKSTLVLMPLFGVHYIVFMATPYTEVSGTLWQVQMHYEMLFNSFQGFFVAIIYCFCNGEVQAEIKKSWSRWTLALDFKRKARSGSSSYSYGPMVSHTSVTNVGPRVGLGLPLSPRLLPTATTNGHPQLPGHAKPGTPALETLETTPPAMAAPKDDGFLNGSCSGLDEEASGPERPPALLQEEWETVM
Consider B1, for which the “level of basal cAMP signaling” value in experiment [1] was “moderate, but significant, improvements”.

B2: hP1R-[R^11]-Tether(1–11): Made from hTether-1 by inserting Asn10-Arg11 between His9 and first Gly of linker (protein)
chain: MGTARIAPGLALLLCCPVLSSAYAVSEIQLMHNRGGGGEVFDRLGMIYTVGYSVSLASLTVAVLILAYFRRLHCTRNYIHMHLFLSFMLRAVSIFVKDAVLYSGATLDEAERLTEEELRAIAQAPPPPATAAAGYAGCRVAVTFFLYFLATNYYWILVEGLYLHSLIFMAFFSEKKYLWGFTVFGWGLPAVFVAVWVSVRATLANTGCWDLSSGNKKWIIQVPILASIVLNFILFINIVRVLATKLRETNAGRCDTRQQYRKLLKSTLVLMPLFGVHYIVFMATPYTEVSGTLWQVQMHYEMLFNSFQGFFVAIIYCFCNGEVQAEIKKSWSRWTLALDFKRKARSGSSSYSYGPMVSHTSVTNVGPRVGLGLPLSPRLLPTATTNGHPQLPGHAKPGTPALETLETTPPAMAAPKDDGFLNGSCSGLDEEASGPERPPALLQEEWETVM
B2: in experiment [1], the “basal signaling compared with maximum agonist-stimulated response of hP1R-WT” value is “approached the maximum response attained by hP1R-WT”, the “time of maximum level of basal cAMP signaling” value was 40 min and the “level of basal cAMP signaling” value is given as “increased still further”. The “increase in basal cAMP signaling” value in experiment [1] (comparator not restated) was 20 fold. Moreover, in experiment [1] (listed as hP1R-[R^11]Tether-(1–11)), the “basal signaling compared with maximum agonist-stimulated response of hP1R-WT” value is listed as “approached the maximum agonist-stimulated response attained by hP1R-wildtype”. Moreover, the “time of maximal agonist-induced signaling” value in experiment [2] came to 40 min.

B3: hP1R-Tether(1–11): hP1R-Tether construct with the ligand chain extended to position 11, native leucine at 11 (protein)
chain: EIQLMHNLGGGGEVFDRLGMIYTVGYSVSLASLTVAVLILAYFRRLHCTRNYIHMHLFLSFMLRAVSIFVKDAVLYSGATLDEAERLTEEELRAIAQAPPPPATAAAGYAGCRVAVTFFLYFLATNYYWILVEGLYLHSLIFMAFFSEKKYLWGFTVFGWGLPAVFVAVWVSVRATLANTGCWDLSSGNKKWIIQVPILASIVLNFILFINIVRVLATKLRETNAGRCDTRQQYRKLLKSTLVLMPLFGVHYIVFMATPYTEVSGTLWQVQMHYEMLFNSFQGFFVAIIYCFCNGEVQAEIKKSWSRWTLALDFKRKARSGSSSYSYGPMVSHTSVTNVGPRVGLGLPLSPRLLPTATTNGHPQLPGHAKPGTPALETLETTPPAMAAPKDDGFLNGSCSGLDEEASGPERPPALLQEEWETVM
For the molecule B3, in experiment [1], the “level of basal cAMP signaling” value was “moderate, but significant, improvements”.

B4: hP1R-WT: intact human PTH-1 receptor (protein)
chain: DADDVMTKEEQIFLLHRAQAQCEKRLKEVLQRPASIMESDKGWTSASTSGKPRKDKASGKLYPESEEDKEAPTGSRYRGRPCLPEWDHILCWPLGAPGEVVAVPCPDYIYDFNHKGHAYRRCDRNGSWELVPGHNRTWANYSECVKFLTNETREREVFDRLGMIYTVGYSVSLASLTVAVLILAYFRRLHCTRNYIHMHLFLSFMLRAVSIFVKDAVLYSGATLDEAERLTEEELRAIAQAPPPPATAAAGYAGCRVAVTFFLYFLATNYYWILVEGLYLHSLIFMAFFSEKKYLWGFTVFGWGLPAVFVAVWVSVRATLANTGCWDLSSGNKKWIIQVPILASIVLNFILFINIVRVLATKLRETNAGRCDTRQQYRKLLKSTLVLMPLFGVHYIVFMATPYTEVSGTLWQVQMHYEMLFNSFQGFFVAIIYCFCNGEVQAEIKKSWSRWTLALDFKRKARSGSSSYSYGPMVSHTSVTNVGPRVGLGLPLSPRLLPTATTNGHPQLPGHAKPGTPALETLETTPPAMAAPKDDGFLNGSCSGLDEEASGPERPPALLQEEWETVM
As to B4, in experiment [2], the “time of maximal agonist-induced signaling” value is 40 min.

B5: hP1R-Tether(1–9): tethered human PTH-1 receptor: PTH(1–9) and four glycine spacer inserted between residues 23 and 182 of hP1R-delNT (protein)
chain: MGTARIAPGLALLLCCPVLSSAYAVSEIQLMHGGGGEVFDRLGMIYTVGYSVSLASLTVAVLILAYFRRLHCTRNYIHMHLFLSFMLRAVSIFVKDAVLYSGATLDEAERLTEEELRAIAQAPPPPATAAAGYAGCRVAVTFFLYFLATNYYWILVEGLYLHSLIFMAFFSEKKYLWGFTVFGWGLPAVFVAVWVSVRATLANTGCWDLSSGNKKWIIQVPILASIVLNFILFINIVRVLATKLRETNAGRCDTRQQYRKLLKSTLVLMPLFGVHYIVFMATPYTEVSGTLWQVQMHYEMLFNSFQGFFVAIIYCFCNGEVQAEIKKSWSRWTLALDFKRKARSGSSSYSYGPMVSHTSVTNVGPRVGLGLPLSPRLLPTATTNGHPQLPGHAKPGTPALETLETTPPAMAAPKDDGFLNGSCSGLDEEASGPERPPALLQEEWETVM
For B5, in experiment [1] (absence of any agonist peptide), the “enhancement in the basal level of cAMP relative to hde1NT” value is given as ~5 fold.
